Measurements reported in paper PMC10928148 (Molecular Therapy, 2024).

Assays:
[1] = biological target: T1, receptor binding domain of the SARS-CoV-2 (Wuhan) Spike protein with C-terminal 6xHis-tag (Severe acute respiratory syndrome …, UniProt P0DTC2); assay: SPR; conditions: both partners purified
[2] = biological target: T1, receptor binding domain of the …; assay: SPR; conditions: both partners purified; remark: listed apart in the source
[3] = biological target: T2, receptor binding domain of the SARS-CoV-2 (Wuhan) Spike protein with C-terminal 6xHis-tag (SARS-CoV-2 (Wuhan), UniProt P0DTC2); assay: SPR; conditions: both partners purified
T2 construct: not shown: 6xHis, C-terminal, kept

[4] = biological target: T2, receptor binding domain of the …; assay: cell-based or functional assay

B1: 2-15 monomeric IgA1 (antibody, V domains shown)
VH: QVQLVQSGAEVKKPGASVRVSCKASGYTFTGYYMHWVRQAPGQGLEWMGWINPISDGTNYAQKFQGWVTMTRDTSISTVYMELSRLRSDDTAVYYCARGGSRCSGGNCYGWAYDAFDIWGQGTMITVSS
VL: QSALTQPASVSGSPGQSITISCTGTSSDVGGYNFVSWYQQHPGKAPKLMIYDVSKRPSGVSNRFSGSKSGNTASLTISGLQAEDEADCYCSSYTSSSTFVFGTGTKVTVL
Kd [1]: 3.75 nM

B2: 2-15 monomeric IgA2 (antibody, V domains shown)
VH: B1 VH
VL: B1 VL
Kd [1]: 2.88 nM

B3: 2-15 IgG (antibody, V domains shown)
VH: B1 VH
VL: B1 VL
Kd [1]: 1.16 nM

B4: COVA2-15 monomeric IgA1 (antibody, V domains shown)
VH: QVQLLESGGGLVQPGGSLRLSCAASGFTFSSYAMSWVRQAPGKGLEWASAISGSGGSTYYADSVEGRFTISRDNSKNTLYLQMNSLRAEDTAVYYCAKDTGYCGDDCYIKLIRGGPDYWGQGTLVTVSS
VL: DIVMTQSPLSLPVTLGQPASISCRSSQSLVYSDGNTFLNWFQQRPGQSPRRLIYQVSNRDSGVPDRFSGSGSGTDFTLKISRVEAEDVGVYYCMQGTHWPRTFGQGTKLEIK
Kd [2]: 1.43 nM | koff [2]: 0.00027 s⁻¹ | kon [2]: 231000 M⁻¹ s⁻¹

B5: COVA2-15 monomeric IgA2 (antibody, V domains shown)
VH: B4 VH
VL: B4 VL
Kd [2]: 1.67 nM | koff [2]: 0.00035 s⁻¹ | kon [2]: 207000 M⁻¹ s⁻¹

B6: COVA2-15 secretory IgA1 (antibody, V domains shown)
VH: B4 VH
VL: B4 VL
Kd [3]: 0.38 nM | koff [3]: 0.00016 s⁻¹ | kon [3]: 423000 M⁻¹ s⁻¹ | other [4]: 13.5 ng/mL

B7: COVA2-15 secretory IgA2 (antibody, V domains shown)
VH: B4 VH
VL: B4 VL
Kd [3]: 0.76 nM | koff [3]: 0.00024 s⁻¹ | kon [3]: 326000 M⁻¹ s⁻¹ | other [4]: 13.5 ng/mL

B8: COVA2-15 IgG (antibody, V domains shown)
VH: B4 VH
VL: B4 VL
Kd [3]: 0.74 nM | koff [3]: 0.00024 s⁻¹ | kon [3]: 333000 M⁻¹ s⁻¹ | other [4]: 50 ng/mL

B9: COVA2-15 monomeric IgA1 (antibody, V domains shown)
VH: B4 VH
VL: B4 VL
other [4]: 50 ng/mL

B10: COVA2-15 monomeric IgA2 (antibody, V domains shown)
VH: B4 VH
VL: B4 VL
other [4]: 50 ng/mL
